The target in one assay is T1, DOTA-MART-1 (conjugated with the chelator DOTA (no radiometal stated); attachment site not stated).
T1 construct: also called MART-1 peptide with DOTA
Put plainly: SPR (Biacore T200), CD206 immobilized on CM5 chip, peptide as analyte. In general terms: Surface plasmon resonance follows binding to a sensor surface in real time, without labels.

Another assay deals with T2, [68Ga]MART-1 (conjugated with the chelator DOTA complexed with 68Ga; attachment site not stated).
T2 construct: Synthetic control peptide with DOTA, radiolabeled with 68Ga under the same conditions as RP832c; also called 68Ga-labeled DOTA-MART-1; control tracer
Description: protein plate binding assay on coated mouse CD206, gamma counting.

B1: Recombinant human CD206 (receptor)
chain: LLDTRQFLIYNEDHKRCVDAVSPSAVQTAACNQDAESQKFRWVSESQIMSVAFKLCLGVPSKTDWVAITLYACDSKSEFQKWECKNDTLLGIKGEDLFFNYGNRQEKNIMLYKGSGLWSRWKIYGTTDNLCSRGYEAMYTLLGNANGATCAFPFKFENKWYADCTSAGRSDGWLWCGTTTDYDTDKLFGYCPLKFEGSESLWNKDPLTSVSYQINSKSALTWHQARKSCQQQNAELLSITEIHEQTYLTGLTSSLTSGLWIGLNSLSFNSGWQWSDRSPFRYLNWLPGSPSAEPGKSCVSLNPGKNAKWENLECVQKLGYICKKGNTTLNSFVIPSESDVPTHCPSQWWPYAGHCYKIHRDEKKIQRDALTTCRKEGGDLTSIHTIEELDFIISQLGYEPNDELWIGLNDIKIQMYFEWSDGTPVTFTKWLRGEPSHENNRQEDCVVMKGKDGYWADRGCEWPLGYICKMKSRSQGPEIVEVEKGCRKGWKKHHFYCYMIGHTLSTFAEANQTCNNENAYLTTIEDRYEQAFLTSFVGLRPEKYFWTGLSDIQTKGTFQWTIEEEVRFTHWNSDMPGRKPGCVAMRTGIAGGLWDVLKCDEKAKFVCKHWAEGVTHPPKPTTTPEPKCPEDWGASSRTSLCFKLYAKGKHEKKTWFESRDFCRALGGDLASINNKEEQQTIWRLITASGSYHKLFWLGLTYGSPSEGFTWSDGSPVSYENWAYGEPNNYQNVEYCGELKGDPTMSWNDINCEHLNNWICQIQKGQTPKPEPTPAPQDNPPVTEDGWVIYKDYQYYFSKEKETMDNARAFCKRNFGDLVSIQSESEKKFLWKYVNRNDAQSAYFIGLLISLDKKFAWMDGSKVDYVSWATGEPNFANEDENCVTMYSNSGFWNDINCGYPNAFICQRHNSSINATTVMPTMPSVPSGCKEGWNFYSNKCFKIFGFMEEERKNWQEARKACIGFGGNLVSIQNEKEQAFLTYHMKDSTFSAWTGLNDVNSEHTFLWTDGRGVHYTNWGKGYPGGRRSSLSYEDADCVVIIGGASNEAGKWMDDTCDSKRGYICQTRSDPSLTNPPATIQTDGFVKYGKSSYSLMRQKFQWHEAETYCKLHNSLIASILDPYSNAFAWLQMETSNERVWIALNSNLTDNQYTWTDKWRVRYTNWAADEPKLKSACVYLDLDGYWKTAHCNESFYFLCKRSDEIPATEPPQLPGRCPESDHTAWIPFHGHCYYIESSYTRNWGQASLECLRMGSSLVSIESAAESSFLSYRVEPLKSKTNFWIGLFRNVEGTWLWINNSPVSFVNWNTGDPSGERNDCVALHASSGFWSNIHCSSYKGYICKRPKIIDAKPTHELLTTKADTRKMDPSK
notes: Bought protein, amine-coupled to a CM5 chip (about 5000 RU)
With B1, the binding result with DOTA-MART-1 is “no binding (tested: 0.5 uM-10 uM)”.

B2: CD206 mouse protein (receptor)
chain: LDARQFLIYNEDHKRCVDALSAISVQTATCNPEAESQKFRWVSDSQIMSVAFKLCLGVPSKTDWASVTLYACDSKSEYQKWECKNDTLFGIKGTELYFNYGNRQEKNIKLYKGSGLWSRWKVYGTTDDLCSRGYEAMYSLLGNANGAVCAFPFKFENKWYADCTSAGRSDGWLWCGTTTDYDKDKLFGFCPLHFEGSERLWNKDPLTGILYQINSKSALTWHQARASCKQQNADLLSVTEIHEQMYLTGLTSSLSSGLWIGLNSLSVRSGWQWAGGSPFRYLNWLPGSPSSEPGKSCVSLNPGKNAKWENLECVQKLGYICKKGNNTLNPFIIPSASDVPTGCPNQWWPYAGHCYRIHREEKKIQKYALQACRKEGGDLASIHSIEEFDFIFSQLGYEPNDELWIGLNDIKIQMYFEWSDGTPVTFTKWLPGEPSHENNRQEDCVVMKGKDGYWADRACEQPLGYICKMVSQSHAVVPEGADKGCRKGWKRHGFYCYLIGSTLSTFTDANHTCTNEKAYLTTVEDRYEQAFLTSLVGLRPEKYFWTGLSDVQNKGTFRWTVDEQVQFTHWNADMPGRKAGCVAMKTGVAGGLWDVLSCEEKAKFVCKHWAEGVTRPPEPTTTPEPKCPENWGTTSKTSMCFKLYAKGKHEKKTWFESRDFCKAIGGELASIKSKDEQQVIWRLITSSGSYHELFWLGLTYGSPSEGFTWSDGSPVSYENWAYGEPNNYQNVEYCGELKGDPGMSWNDINCEHLNNWICQIQKGKTLLPEPTPAPQDNPPVTADGWVIYKDYQYYFSKEKETMDNARAFCKKNFGDLATIKSESEKKFLWKYINKNGGQSPYFIGMLISMDKKFIWMDGSKVDFVAWATGEPNFANDDENCVTMYTNSGFWNDINCGYPNNFICQRHNSSINATAMPTTPTTPGGCKEGWHLYKNKCFKIFGFANEEKKSWQDARQACKGLKGNLVSIENAQEQAFVTYHMRDSTFNAWTGLNDINAEHMFLWTAGQGVHYTNWGKGYPGGRRSSLSYEDADCVVVIGGNSREAGTWMDDTCDSKQGYICQTQTDPSLPVSPTTTPKDGFVTYGKSSYSLMKLKLPWHEAETYCKDHTSLLASILDPYSNAFAWMKMHPFNVPIWIALNSNLTNNEYTWTDRWRVRYTNWGADEPKLKSACVYMDVDGYWRTSYCNESFYFLCKKSDEIPATEPPQLPGKCPESEQTAWIPFYGHCYYFESSFTRSWGQASLECLRMGASLVSIETAAESSFLSYRVEPLKSKTNFWIGMFRNVEGKWLWLNDNPVSFVNWKTGDPSGERNDCVVLASSSGLWNNIHCSSYKGFICKMPKIIDPVTTHSSITTKADQRKMDPQPKGSSKA
notes: Bought protein coated on a 96 well plate (1 ug per well); also called mouse CD206 protein; murine CD206
With B2, in assay [68Ga]MART-1, the binding result is “no binding (tested: 50 nM)”.

These data come from patent US20250161505A1 (RIPTIDE BIOSCIENCE, published 2025).
